Results reported in the Human Domainome abundance scans (Beltran et al. 2025).
± gives the uncertainty stated by the source.

B1: Myocardin-related transcription factor A, residues 341 to 383; numbered along this chain, Q969V6 (parent)
chain: GALPANLDDMKVAELKQELKLRSLPVSGTKTELIERLRAYQDQ

Variants of: B1
Assay: abundance fitness (aPCA) (normalised: wild type 0, dead -1); higher = more abundant; growth selection in yeast, the domain comes from the species named
Settings: Homo sapiens
In the case of GALPANLDDMKVAELKQELKCRSLPVSGTKTELIERLRAYQDQ [L21C], the abundance fitness is reported as -0.229 ± 0.14.
Variant GALPANLDDMKVAELKQELKWRSLPVSGTKTELIERLRAYQDQ [L21W] has an abundance fitness of -0.283 ± 0.078.
GALPANLDDMKVAELKQELKERSLPVSGTKTELIERLRAYQDQ [L21E] showed an abundance fitness of 0.098 ± 0.071.
Work on GALPANLDDMKVAELKQELKDRSLPVSGTKTELIERLRAYQDQ [L21D] yielded an abundance fitness of 0.041 ± 0.081.
With GALPANLDDMKVAELKQELKSRSLPVSGTKTELIERLRAYQDQ [L21S] the abundance fitness was -0.089 ± 0.06.
In the case of GALPANLDDMKVAELKQELKNRSLPVSGTKTELIERLRAYQDQ [L21N], the abundance fitness is reported as -0.08 ± 0.45.
GALPANLDDMKVAELKQELKGRSLPVSGTKTELIERLRAYQDQ [L21G] showed an abundance fitness of -0.067 ± 0.065.
With GALPANLDDMKVAELKQELKFRSLPVSGTKTELIERLRAYQDQ [L21F] the abundance fitness was -0.177 ± 0.091.
For GALPANLDDMKVAELKQELKQRSLPVSGTKTELIERLRAYQDQ [L21Q], the abundance fitness was 0.061 ± 0.1.
With GALPANLDDMKVAELKQELKHRSLPVSGTKTELIERLRAYQDQ [L21H] the abundance fitness was 0.003 ± 0.23.
In the case of GALPANLDDMKVAELKQELKTRSLPVSGTKTELIERLRAYQDQ [L21T], the abundance fitness is reported as 0.094 ± 0.085.
GALPANLDDMKVAELKQELKARSLPVSGTKTELIERLRAYQDQ [L21A] gave an abundance fitness of 0.038 ± 0.075.
For GALPANLDDMKVAELKQELKVRSLPVSGTKTELIERLRAYQDQ [L21V], the abundance fitness was -0.004 ± 0.068.
GALPANLDDMKVAELKQELKRRSLPVSGTKTELIERLRAYQDQ [L21R] showed an abundance fitness of 0.057 ± 0.063.
Work on GALPANLDDMKVAELKQELKPRSLPVSGTKTELIERLRAYQDQ [L21P] yielded an abundance fitness of -0.593 ± 0.13.
For GALPANLDDMKVAELKQELKLRSIPVSGTKTELIERLRAYQDQ [L24I], the abundance fitness was -0.425 ± 0.11.
GALPANLDDMKVAELKQELKLRSQPVSGTKTELIERLRAYQDQ [L24Q] gave an abundance fitness of -0.07 ± 0.13.
For GALPANLDDMKVAELKQELKLRSHPVSGTKTELIERLRAYQDQ [L24H], the abundance fitness was -0.979 ± 0.18.
In the case of GALPANLDDMKVAELKQELKLRSVPVSGTKTELIERLRAYQDQ [L24V], the abundance fitness is reported as -0.342 ± 0.075.
GALPANLDDMKVAELKQELKLRSYPVSGTKTELIERLRAYQDQ [L24Y] showed an abundance fitness of -1.02 ± 0.2.
Variant GALPANLDDMKVAELKQELKLRSDPVSGTKTELIERLRAYQDQ [L24D] has an abundance fitness of -0.835 ± 0.19.
Work on GALPANLDDMKVAELKQELKLRSAPVSGTKTELIERLRAYQDQ [L24A] yielded an abundance fitness of -0.27 ± 0.088.
Work on GALPANLDDMKVAELKQELKLRSGPVSGTKTELIERLRAYQDQ [L24G] yielded an abundance fitness of -0.471 ± 0.077.
GALPANLDDMKVAELKQELKLRSPPVSGTKTELIERLRAYQDQ [L24P] gave an abundance fitness of -0.639 ± 0.13.
In the case of GALPANLDDMKVAELKQELKLRSMPVSGTKTELIERLRAYQDQ [L24M], the abundance fitness is reported as -0.091 ± 0.078.
Work on GALPANLDDMKVAELKQELKLRSWPVSGTKTELIERLRAYQDQ [L24W] yielded an abundance fitness of -0.751 ± 0.13.
With GALPANLDDMKVAELKQELKLRSRPVSGTKTELIERLRAYQDQ [L24R] the abundance fitness was -0.436 ± 0.074.
GALPANLDDMKVAELKQELKLRSCPVSGTKTELIERLRAYQDQ [L24C] gave an abundance fitness of -0.385 ± 0.091.
GALPANLDDMKVAELKQKLKLRSLPVSGTKTELIERLRAYQDQ [E18K] showed an abundance fitness of -0.365 ± 0.12.
With GALPANLDDMKVAELKQQLKLRSLPVSGTKTELIERLRAYQDQ [E18Q] the abundance fitness was -0.292 ± 0.11.
GALPANLDDMKVAELKQALKLRSLPVSGTKTELIERLRAYQDQ [E18A] showed an abundance fitness of -0.007 ± 0.067.
In the case of GALPANLDDMKVAELKQILKLRSLPVSGTKTELIERLRAYQDQ [E18I], the abundance fitness is reported as -0.906 ± 0.24.
With GALPANLDDMKVAELKQRLKLRSLPVSGTKTELIERLRAYQDQ [E18R] the abundance fitness was -0.593 ± 0.058.
For GALPANLDDMKVAELKQMLKLRSLPVSGTKTELIERLRAYQDQ [E18M], the abundance fitness was -0.274 ± 0.12.
GALPANLDDMKVAELKQLLKLRSLPVSGTKTELIERLRAYQDQ [E18L] showed an abundance fitness of -0.35 ± 0.084.
In the case of GALPANLDDMKVAELKQSLKLRSLPVSGTKTELIERLRAYQDQ [E18S], the abundance fitness is reported as -0.28 ± 0.18.
In the case of GALPANLDDMKVAELKQWLKLRSLPVSGTKTELIERLRAYQDQ [E18W], the abundance fitness is reported as -0.606 ± 0.09.
Work on GALPANLDDMKVAELKQTLKLRSLPVSGTKTELIERLRAYQDQ [E18T] yielded an abundance fitness of -0.5 ± 0.098.
GALPANLDDMKVAELKQGLKLRSLPVSGTKTELIERLRAYQDQ [E18G] showed an abundance fitness of -0.701 ± 0.084.
For GALPANLDDMKVAELKQCLKLRSLPVSGTKTELIERLRAYQDQ [E18C], the abundance fitness was -0.2 ± 0.1.
Work on GALPANLDDMKVAELKQPLKLRSLPVSGTKTELIERLRAYQDQ [E18P] yielded an abundance fitness of -1.33 ± 0.25.
For GALPANLDDMKVAELKQHLKLRSLPVSGTKTELIERLRAYQDQ [E18H], the abundance fitness was -0.432 ± 0.23.
Variant GALPANLDDMKVAELKQVLKLRSLPVSGTKTELIERLRAYQDQ [E18V] has an abundance fitness of -0.15 ± 0.12.
Variant GALPANLDDMKVAELKSELKLRSLPVSGTKTELIERLRAYQDQ [Q17S] has an abundance fitness of -0.036 ± 0.084.
With GALPANLDDMKVAELKWELKLRSLPVSGTKTELIERLRAYQDQ [Q17W] the abundance fitness was -0.595 ± 0.12.
Work on GALPANLDDMKVAELKTELKLRSLPVSGTKTELIERLRAYQDQ [Q17T] yielded an abundance fitness of -0.134 ± 0.078.
For GALPANLDDMKVAELKVELKLRSLPVSGTKTELIERLRAYQDQ [Q17V], the abundance fitness was -0.207 ± 0.076.
With GALPANLDDMKVAELKYELKLRSLPVSGTKTELIERLRAYQDQ [Q17Y] the abundance fitness was -0.263 ± 0.12.
For GALPANLDDMKVAELKQEAKLRSLPVSGTKTELIERLRAYQDQ [L19A], the abundance fitness was -0.048 ± 0.087.
For GALPANLDDMKVAELKQERKLRSLPVSGTKTELIERLRAYQDQ [L19R], the abundance fitness was -0.812 ± 0.088.
Variant GALPANLDDMKVAELKQEVKLRSLPVSGTKTELIERLRAYQDQ [L19V] has an abundance fitness of -0.286 ± 0.073.
GALPANLDDMKVAELKQEHKLRSLPVSGTKTELIERLRAYQDQ [L19H] showed an abundance fitness of -0.852 ± 0.28.
In the case of GALPANLDDMKVAELKQEGKLRSLPVSGTKTELIERLRAYQDQ [L19G], the abundance fitness is reported as -0.536 ± 0.066.
GALPANLDDMKVAELKQEDKLRSLPVSGTKTELIERLRAYQDQ [L19D] gave an abundance fitness of -0.621 ± 0.18.
Work on GALPANLDDMKVAELKQETKLRSLPVSGTKTELIERLRAYQDQ [L19T] yielded an abundance fitness of -0.391 ± 0.11.
For GALPANLDDMKVAELKQEWKLRSLPVSGTKTELIERLRAYQDQ [L19W], the abundance fitness was -0.911 ± 0.23.
In the case of GALPANLDDMKVAELKQEQKLRSLPVSGTKTELIERLRAYQDQ [L19Q], the abundance fitness is reported as -0.408 ± 0.09.
Variant GALPANLDDMKVAELKQESKLRSLPVSGTKTELIERLRAYQDQ [L19S] has an abundance fitness of -0.237 ± 0.2.
In the case of GALPANLDDMKVAELKQEEKLRSLPVSGTKTELIERLRAYQDQ [L19E], the abundance fitness is reported as -0.55 ± 0.1.
